The data set has as its target T1, DHX36 (Mus musculus) (UniProt Q8VHK9).
T1 sequence: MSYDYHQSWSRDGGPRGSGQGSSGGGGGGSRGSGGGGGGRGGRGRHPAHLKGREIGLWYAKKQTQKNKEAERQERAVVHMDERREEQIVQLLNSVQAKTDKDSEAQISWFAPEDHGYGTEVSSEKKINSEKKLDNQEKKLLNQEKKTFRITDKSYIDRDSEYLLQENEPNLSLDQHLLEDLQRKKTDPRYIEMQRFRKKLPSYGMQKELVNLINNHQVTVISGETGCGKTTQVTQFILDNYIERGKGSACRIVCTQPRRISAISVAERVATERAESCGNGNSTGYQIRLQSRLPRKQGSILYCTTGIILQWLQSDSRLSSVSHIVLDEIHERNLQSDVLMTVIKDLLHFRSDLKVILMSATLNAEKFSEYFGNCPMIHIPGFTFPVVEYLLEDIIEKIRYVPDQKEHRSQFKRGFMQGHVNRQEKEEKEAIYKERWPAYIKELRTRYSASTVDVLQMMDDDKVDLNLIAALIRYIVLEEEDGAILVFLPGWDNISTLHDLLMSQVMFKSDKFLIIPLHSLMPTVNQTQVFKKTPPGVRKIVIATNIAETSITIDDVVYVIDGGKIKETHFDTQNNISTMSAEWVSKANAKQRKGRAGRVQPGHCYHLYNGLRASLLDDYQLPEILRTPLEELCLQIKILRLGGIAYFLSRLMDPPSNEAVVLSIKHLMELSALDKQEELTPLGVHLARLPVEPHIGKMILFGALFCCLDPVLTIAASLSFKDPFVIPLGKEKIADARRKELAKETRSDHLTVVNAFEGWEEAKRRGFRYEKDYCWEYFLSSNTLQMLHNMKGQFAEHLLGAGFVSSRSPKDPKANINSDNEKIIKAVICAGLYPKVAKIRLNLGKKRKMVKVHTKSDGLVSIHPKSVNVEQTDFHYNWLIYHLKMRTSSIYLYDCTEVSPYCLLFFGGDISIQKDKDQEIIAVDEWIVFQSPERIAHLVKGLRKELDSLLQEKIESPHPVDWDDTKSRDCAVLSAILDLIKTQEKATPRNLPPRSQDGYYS
The data set can be described thus: pulldown. As to conditions: N2a lysate, mass spectrometry; threshold criterion.

In turn, Chaserr Exon5-MC yielded a binding signal (fold lower recovery than WT) of more than 2.

Source of the values: patent publication US20240124881.
